Legend:
Settings in all cases: remark: other sources report otherwise
[1] = target: SARS-CoV-2 RBD domain, Wuhan (SARS-CoV-2); assay: ELISA; set-up: unit not given beside the values
[2] = target: SARS-CoV-2 RBD domain, Wuhan (SARS-CoV-2); assay: RBD/ACE2 blocking ELISA
[3] = target: SARS-CoV-2 RBD domain, Wuhan (SARS-CoV-2); assay: ELISA
[4] = target: T1, SARS-CoV-2 Spike (S) protein on cells (S-Flow assay) (SARS-CoV-2), P0DTC2; assay: flow cytometry (Mock 2.5)
[5] = target: T1, SARS-CoV-2 Spike (S) protein on cells …; assay: flow cytometry, transfected cells
[6] = target: SARS-CoV-2 RBD domain, Wuhan (SARS-CoV-2); assay: RBD-ACE2 competition ELISA; set-up: unit not given beside the values
[7] = target: SARS-CoV-2 RBD domain, Wuhan (SARS-CoV-2); assay: competition ELISA vs bio-Cv2.3194
[8] = target: SARS-CoV-2 RBD domain, Wuhan (SARS-CoV-2); assay: RBD-ACE2 competition ELISA; set-up: unit not given beside the values; remark: listed apart in the source
[9] = target: SARS-CoV-2 RBD domain, Wuhan (SARS-CoV-2); assay: SPR (Biacore), antibody immobilised
[10] = target: SARS-CoV-1 Spike ectodomain (SARS-CoV-1), P59594; assay: ELISA, coated antigen; further: test concentration or dose not given here
[11] = target: CoV-MERS Spike ectodomain (MERS-CoV), K9N5Q8; assay: ELISA, coated antigen
[12] = target: SARS-CoV-2 RBD domain, Wuhan (SARS-CoV-2); assay: ELISA, coated antigen
[13] = target: T1, SARS-CoV-2 Spike (S) protein on cells …; assay: S-Flow flow cytometry, spike-expressing cells
[14] = target: SARS-CoV-2 RBD domain, Wuhan (SARS-CoV-2); assay: competition ELISA vs bio-Cv2.3235
[15] = target: SARS-CoV-2 RBD domain, Wuhan (SARS-CoV-2); assay: competition ELISA vs bio-Cv2.1353
[16] = target: SARS-CoV-2 RBD domain, Wuhan (SARS-CoV-2); assay: ELISA; set-up: unit not given beside the values; remark: listed apart in the source
[17] = target: SARS-CoV-2 RBD domain, Wuhan (SARS-CoV-2); assay: competition ELISA vs bio-Cv2.5213
[18] = target: SARS-CoV-2 RBD domain, Wuhan (SARS-CoV-2); assay: competition ELISA vs bio-Cv2.1169
[19] = target: SARS-CoV-2 RBD domain, Wuhan (SARS-CoV-2); assay: ELISA; set-up: unit not given beside the values; remark: listed apart in the source
[20] = target: SARS-CoV-2 RBD domain, Wuhan (SARS-CoV-2); assay: SPR (Biacore), antibody coupled to CM5 chip, viral protein as analyte
Wherever % inhibition (competition) is given: test concentration or dose not given here.

Binder | log10 ΔgMFI [5] | AUC (RBD block.) [6] | % inhibition (competition) [7] | AUC (RBD block.) [8] | Kd [9] [nM] | ELISA OD [10] [OD] | ELISA OD [11] [OD] | ELISA OD [12] [OD] | S-Flow (%) [13] [%] | S-Flow (MFI) [13] [MFI] | % inhibition (competition) [14] | % inhibition (competition) [15] | AUC (RBD bind.) [16] | % inhibition (competition) [17] | % inhibition (competition) [18] | other results
ADG-2 (antibody, V domains shown) VH: EVQLVESGGGLVKPGGSLRLSCAASGFTFSSYYMNWVRQAPGKGLEWVSSISEDGYSTYYPDSLKGRFTISRDSAKNSLYLQMNSLRADDTAVYYCARDFSGHTAWAGTGFEYWGQGTLVTVSS VL: QSVLTQPPSVSGAPGQRITISCTGSSSNIGAGYDVHWYQQLPGTAPKLLIYGSSSRNSGVPDRFSGSKSGTSASLAITGLQAEDEADYYCQSYDSSLSVLYTFGTGTKVTVL |  |  |  |  |  |  |  |  |  |  |  |  |  |  |  | AUC [1]: 3; % binding inhibition [2]: 94%
Adintrevimab (antibody, V domains shown) VH: EVQLVESGGGLVKPGGSLRLSCAASGFTFSSYYMNWVRQAPGKGLEWVSSISEDGYSTYYPDSLKGRFTISRDSAKNSLYLQMNSLRADDTAVYYCARDFSGHTAWAGTGFEYWGQGTLVTVSS VL: QSVLTQPPSVSGAPGQRITISCTGSSSNIGAGYDVHWYQQLPGTAPKLLIYGSSSRNSGVPDRFSGSKSGTSASLAITGLQAEDEADYYCQSYDSSLSVLYTFGTGTKVTVL |  |  |  |  |  |  |  |  |  |  |  |  |  |  |  | OD405nm [3]: 3.3; log10 ΔgMFI [4]: 4.4
Cv2.5213 (recombinant human IgG1) (antibody) heavy: EVQLVESGGGLIQPGGSLRLSCAASGFTVSSNYMSWVRQAPGKGLEWVSLIYSGGSTYYADSVKGRFTISRDNSKNTLYLQMNSLRAEDTAVYYCARDLNYYGMDVWGQGATVTVSSASTKGPSVFPLAPSSKSTSGGTAALGCLVKDYFPEPVTVSWNSGALTSGVHTFPAVLQSSGLYSLSSVVTVPSSSLGTQTYICNVNHKPSNTKVDKKVEPKSCDKTHTCPPCPAPELLGGPSVFLFPPKPKDTLMISRTPEVTCVVVDVSHEDPEVKFNWYVDGVEVHNAKTKPREEQYNSTYRVVSVLTVLHQDWLNGKEYKCKVSNKALPAPIEKTISKAKQPREPQVYTLPPSRDELTKNQVSLTCLVKGFYPSDIAVEWESNGQPENNYKTTPPVLDSDGSFFLYSKLTVDKSRWQQGNVFSCSVMHEALHNHYTQKSLSLSPGK light: not shown | 4 | 283 | 61 | 141 | 162 | 0.1 | 0.1 | 3.5 | 95 | 270000 | 80 | 67 | 13 | 77 | 43 | 
Cv2.3235 (recombinant human IgG1) (antibody) heavy: EVQLVESGGGLIQPGGSLRLSCAASGFTVSRNYMSWVRQAPGKGLEWVSVIYSGGSTFYADSVKGRFTISRDNSKNTLYLQMNSLRAEDTAVYYCARDGDYYGMDVWGQGTTVTVSSASTKGPSVFPLAPSSKSTSGGTAALGCLVKDYFPEPVTVSWNSGALTSGVHTFPAVLQSSGLYSLSSVVTVPSSSLGTQTYICNVNHKPSNTKVDKKVEPKSCDKTHTCPPCPAPELLGGPSVFLFPPKPKDTLMISRTPEVTCVVVDVSHEDPEVKFNWYVDGVEVHNAKTKPREEQYNSTYRVVSVLTVLHQDWLNGKEYKCKVSNKALPAPIEKTISKAKQPREPQVYTLPPSRDELTKNQVSLTCLVKGFYPSDIAVEWESNGQPENNYKTTPPVLDSDGSFFLYSKLTVDKSRWQQGNVFSCSVMHEALHNHYTQKSLSLSPGK light: DIQMTQSPSFLSASVGDRVTITCRASQGISSFLAWYQQKPGKAPKLLIYGASTLQSGVTSRFSGSGSGTEFTLTISSLQPEDFATYYCQRLDSYPPITFGQGTRLEIKRTVAAPSVFIFPPSDEQLKSGTASVVCLLNNFYPREAKVQWKVDNALQSGNSQESVTEQDSKDSTYSLSSTLTLSKADYEKHKVYACEVTHQGLSSPVTKSFNRGEC | 4 | 229 | 37 | 114 | 280 | 0.2 | 0.2 | 3.9 | 97 | 170000 | 65 | 37 | 13 | 47 | 14 | 
COV2-2130 (antibody, V domains shown) VH: EVQLVESGGGLVKPGGSLRLSCAASGFTFRDVWMSWVRQAPGKGLEWVGRIKSKIDGGTTDYAAPVKGRFTISRDDSKNTLYLQMNSLKTEDTAVYYCTTAGSYYYDTVGPGLPEGKFDYWGQGTLVTVSS VL: not shown |  |  |  |  |  |  |  |  |  |  |  |  |  |  |  | AUC [1]: 3; % binding inhibition [2]: 96%
Cilgavimab (antibody, V domains shown) VH: EVQLVESGGGLVKPGGSLRLSCAASGFTFRDVWMSWVRQAPGKGLEWVGRIKSKIDGGTTDYAAPVKGRFTISRDDSKNTLYLQMNSLKTEDTAVYYCTTAGSYYYDTVGPGLPEGKFDYWGQGTLVTVSS VL: not shown |  |  |  |  |  |  |  |  |  |  |  |  |  |  |  | OD405nm [3]: 3.2
Cv2.1353 (recombinant human IgG1) (antibody) heavy: EVQLVESGGGLVQPGGSLRLSCAASGVTVSSNYMNWVRQAPGKGLEWVSVIYSGGSTFYADSVKGRFIISRDNSKNTLYLQMNSLKTEDTAVYYCARDLGPMGFDIWGQGTMVTVSSASTKGPSVFPLAPSSKSTSGGTAALGCLVKDYFPEPVTVSWNSGALTSGVHTFPAVLQSSGLYSLSSVVTVPSSSLGTQTYICNVNHKPSNTKVDKKVEPKSCDKTHTCPPCPAPELLGGPSVFLFPPKPKDTLMISRTPEVTCVVVDVSHEDPEVKFNWYVDGVEVHNAKTKPREEQYNSTYRVVSVLTVLHQDWLNGKEYKCKVSNKALPAPIEKTISKAKQPREPQVYTLPPSRDELTKNQVSLTCLVKGFYPSDIAVEWESNGQPENNYKTTPPVLDSDGSFFLYSKLTVDKSRWQQGNVFSCSVMHEALHNHYTQKSLSLSPGK light: DIQMTQSPSFLSASVGDRVTITCRASQGISSYLAWYQQKPGKAPKLLIYAASTLQSGVPSRFSGSGSGTEFTLTISSLQPEDFATYYCQQLNSDPPVTFGPGTKVDIKRTVAAPSVFIFPPSDEQLKSGTASVVCLLNNFYPREAKVQWKVDNALQSGNSQESVTEQDSKDSTYSLSSTLTLSKADYEKHKVYACEVTHQGLSSPVTKSFNRGEC | 4 | 315 | 74 | 158 | 2.24 | 0.1 | 0.1 | 3.5 | 95 | 270000 | 80 | 74 | 12 | 78 | 62 | AUC (RBD bind.) [19]: 13; Kd [20]: < 0.001 nM
